These results are taken from article PMC5473249.

The target of this assay is FabXol3 (omalizumab-derived Fab with three point mutations). Kind of assay: SPR; FabXol3, FabXol or intact omalizumab amine-coupled at low density; IgE-Fc flowed over, 2-fold dilutions from 100 nM; 20 mM HEPES pH 7.4, 150 mM NaCl, 0.005% P-20; 25 °C; monophasic kinetics at low concentrations.

B1: IgE-Fc, P01854 105-427 (domain or fragment)
chain: DIVASRDFTPPTVKILQSSCDGGGHFPPTIQLLCLVSGYTPGTIQITWLEDGQVMDVDLSTASTTQEGELASTQSELTLSQKHWLSDRTYTCQVTYQGHTFEDSTKKCADSNPRGVSAYLSRPSPFDLFIRKSPTITCLVVDLAPSKGTVQLTWSRASGKPVNHSTRKEEKQRNGTLTVTSTLPVGTRDWIEGETYQCRVTHPHLPRALMRSTTKTSGPRAAPEVYAFATPEWPGSRDKRTLACLIQNFMPEDISVQWLHNEVQLPDARHSTTQPRKTKGSGFFVFSRLEVTRAEWEQKDEFICRAVHEAASPSQTVQRAVSVNPGK
modifications: not checked
Molecule B1 registered a Kd of 1 nM, an off-rate constant (koff) of 0.0008 s⁻¹ and a kon of 1.2e+06 M⁻¹ s⁻¹.

One may read the Kd as the equilibrium constant for the complex coming apart. A higher Kd goes with lower affinity. A word on the koff: it is the rate constant with which the complex falls apart. High values mean fast dissociation, low ones slow dissociation. Broadly, the kon is the second-order rate constant of association.
